Measured values from patent publication US20250171534A1 (D2M BIOTHERAPEUTICS, published 2025).
Each block holds one binder with its values, some of them ahead of it.

Key:
[1] = target: T1, LILRB1-ECD-HIS (SinoBiological Cat #: 16014-H02H) (human, UniProt Q8NHL6 24-461); assay: BLI (Gator), RB1-ECD-his
T1 construct: Bought protein; also called monomeric antigen LILRB1-ECD-HIS; not shown: His tag

[2] = target: T2, LILRB3 expressed on cells (human, UniProt O75022 24-631); assay: flow cytometry on CHO-LILRB3 cells (CHO-RB3), titrated antibody, labelled anti-human Fc, gMFI
T2 construct: whole, on cells; Expressed with a GFP tag from the bought plasmid; also called human LILRB3; CHO-LILRB3

[3] = target: T3, LILRB2-ECD-HIS (SinoBiological Cat #: 14132-H02H) (human, UniProt Q8N423 22-460); assay: BLI (Gator), RB2-ECD-his
T3 construct: Bought protein; also called monomeric antigen LILRB2-ECD-HIS; not shown: His tag

[4] = target: T1, LILRB1-ECD-HIS (SinoBiological Cat #: …); assay: SPR (Carterra), LILRB1-ECD-his
[5] = target: T4, human LILRB2 expressed on cells (human, UniProt Q8N423 22-597); assay: flow cytometry, Jurkat-LILRB2 cells
T4 construct: In 293T cells it was expressed from pCMV3-LILRB2-GFP; also called CHO-LILRB2; Jurkat-LILRB2

[6] = target: T4, human LILRB2 expressed on cells; assay: flow cytometry on CHO-LILRB2 cells, non-linear fit of the curves of FIG. 26B
[7] = target: T5, LILRB2-ECD-His (SinoBiological, Cat #: 14132-H08H-B) (Homo sapiens (Human), UniProt Q8N423 22-460, biotinylated (site not stated)); assay: competition ELISA: plate coated with ANGPTL2, biotinylated LILRB2 pre-incubated with titrated antibody, streptavidin-HRP and TMB, OD450
[8] = target: T4, human LILRB2 expressed on cells; assay: flow cytometry, Jurkat-LILRB2 cells; blocked ligand: APC HLA-G monomer tetramer
[9] = target: T3, LILRB2-ECD-HIS (SinoBiological Cat #: …); assay: SPR (Carterra), LILRB2-ECD-his
[10] = target: T6, LILRA1 expressed on cells (human, UniProt O75019 17-489); assay: flow cytometry on CHO-LILRA1 cells (CHO-RA1), titrated antibody, labelled anti-human Fc, gMFI
T6 construct: whole, on cells; GFP-tagged; also called human LILRA1; CHO-LILRA1

[11] = target: T5, LILRB2-ECD-His (SinoBiological, Cat #: …); assay: competition ELISA: plate coated with ANGPTL5, biotinylated LILRB2 pre-incubated with titrated antibody, streptavidin-HRP and TMB, OD450
[12] = target: T5, LILRB2-ECD-His (SinoBiological, Cat #: …); assay: competition ELISA: plate coated with SEMA4A, biotinylated LILRB2 pre-incubated with titrated antibody, streptavidin-HRP and TMB, OD450
[13] = target: T7, LILRA6 expressed on cells (human, UniProt Q6PI73 24-481); assay: flow cytometry on CHO-LILRA6 cells (CHO-RA6), titrated antibody, labelled anti-human Fc, gMFI
T7 construct: whole, on cells; GFP-tagged; also called human LILRA6; CHO-LILRA6

[14] = target: T4, human LILRB2 expressed on cells; assay: flow cytometry on CHO-LILRB2 cells (CHO-RB2), titrated antibody, labelled anti-human Fc, gMFI
[15] = target: T8, human LILRB1 expressed on cells (human, UniProt Q8NHL6 24-650); assay: flow cytometry on CHO-LILRB1 cells (CHO-RB1); D2M002-126 as stock or kept in PBS or human plasma at 37 °C for 1, 2 or 3 weeks; labelled anti-human Fc, gMFI
T8 construct: In 293T cells it was expressed from pCMV3-LILRB1-GFP; also called CHO-LILRB1; Jurkat-LILRB1

[16] = target: T6, LILRA1 expressed on cells; assay: flow cytometry on CHO-LILRA1 cells, non-linear fit of the curves of FIG. 26E
[17] = target: T8, human LILRB1 expressed on cells; assay: flow cytometry, Jurkat-LILRB1 cells
[18] = target: T5, LILRB2-ECD-His (SinoBiological, Cat #: …); assay: competition ELISA: plate coated with CD1D, biotinylated LILRB2 pre-incubated with titrated antibody, streptavidin-HRP and TMB, OD450
[19] = target: T5, LILRB2-ECD-His (SinoBiological, Cat #: …); assay: competition ELISA: plate coated with MAG, biotinylated LILRB2 pre-incubated with titrated antibody, streptavidin-HRP and TMB, OD450
[20] = target: T8, human LILRB1 expressed on cells; assay: flow cytometry on CHO-LILRB1 cells, non-linear fit of the curves of FIG. 26A
[21] = target: T4, human LILRB2 expressed on cells; assay: flow cytometry on CHO-LILRB2 cells (CHO-RB2); D2M002-126 as stock or kept in PBS or human plasma at 37 °C for 1, 2 or 3 weeks; labelled anti-human Fc, gMFI
[22] = target: T8, human LILRB1 expressed on cells; assay: flow cytometry, Jurkat-LILRB1 cells; blocked ligand: APC HLA-G trimer tetramer
[23] = target: T5, LILRB2-ECD-His (SinoBiological, Cat #: …); assay: competition ELISA: plate coated with CD1C, biotinylated LILRB2 pre-incubated with titrated antibody, streptavidin-HRP and TMB, OD450
[24] = target: T8, human LILRB1 expressed on cells; assay: flow cytometry on CHO-LILRB1 cells (CHO-RB1), titrated antibody, labelled anti-human Fc, gMFI
[25] = target: T9, LILRA5 expressed on 293T cells (UniProt A6NI73 42-299, limits assumed); assay: flow cytometry on 293T cells transiently expressing LILRA5, APC anti-human Fc; gMFI as fold to IgG staining
T9 construct: whole, on cells; GFP-tagged, transient

[26] = target: T10, LILRA4 expressed on 293T cells (UniProt P59901 24-499, limits assumed); assay: flow cytometry on 293T cells transiently expressing LILRA4, APC anti-human Fc; gMFI as fold to IgG staining
T10 construct: whole, on cells; GFP-tagged, transient

[27] = target: T4, human LILRB2 expressed on cells; assay: flow cytometry on 293T cells transiently expressing LILRB2, APC anti-human Fc; gMFI as fold to IgG staining
[28] = target: T8, human LILRB1 expressed on cells; assay: flow cytometry, CHO-LILRB1 cells
[29] = target: T8, human LILRB1 expressed on cells; assay: flow cytometry, CHO-LILRB1 cells; remark: listed apart in the source
[30] = target: T11, LILRA3 expressed on 293T cells (UniProt Q8N6C8 24-439, limits assumed); assay: flow cytometry on 293T cells transiently expressing LILRA3, APC anti-human Fc; gMFI as fold to IgG staining
T11 construct: whole, on cells; GFP-tagged, transient

[31] = target: T2, LILRB3 expressed on cells; assay: flow cytometry on 293T cells transiently expressing LILRB3, APC anti-human Fc; gMFI as fold to IgG staining
[32] = target: T12, LILRB5 expressed on 293T cells (UniProt O75023 24-590, limits assumed); assay: flow cytometry on 293T cells transiently expressing LILRB5, APC anti-human Fc; gMFI as fold to IgG staining
T12 construct: whole, on cells; GFP-tagged, transient

[33] = target: T8, human LILRB1 expressed on cells; assay: flow cytometry, CHO-LILRB1 cells; remark: listed apart in the source
[34] = target: T6, LILRA1 expressed on cells; assay: flow cytometry on 293T cells transiently expressing LILRA1, APC anti-human Fc; gMFI as fold to IgG staining
[35] = target: T13, LILRA2 expressed on 293T cells (UniProt Q8N149 24-483, limits assumed); assay: flow cytometry on 293T cells transiently expressing LILRA2, APC anti-human Fc; gMFI as fold to IgG staining
T13 construct: whole, on cells; GFP-tagged, transient

[36] = target: T7, LILRA6 expressed on cells; assay: flow cytometry on 293T cells transiently expressing LILRA6, APC anti-human Fc; gMFI as fold to IgG staining
[37] = target: T14, LILRB4 expressed on 293T cells (UniProt Q8NHJ6 22-448, limits assumed); assay: flow cytometry on 293T cells transiently expressing LILRB4, APC anti-human Fc; gMFI as fold to IgG staining
T14 construct: whole, on cells; GFP-tagged, transient

[38] = target: T8, human LILRB1 expressed on cells; assay: flow cytometry, CHO-LILRB1 cells; blocked ligand: APC HLA-G trimer tetramer

T1 sequence (Q8NHL6 other isoform, or with tags, fused parts or gaps H02H H02H): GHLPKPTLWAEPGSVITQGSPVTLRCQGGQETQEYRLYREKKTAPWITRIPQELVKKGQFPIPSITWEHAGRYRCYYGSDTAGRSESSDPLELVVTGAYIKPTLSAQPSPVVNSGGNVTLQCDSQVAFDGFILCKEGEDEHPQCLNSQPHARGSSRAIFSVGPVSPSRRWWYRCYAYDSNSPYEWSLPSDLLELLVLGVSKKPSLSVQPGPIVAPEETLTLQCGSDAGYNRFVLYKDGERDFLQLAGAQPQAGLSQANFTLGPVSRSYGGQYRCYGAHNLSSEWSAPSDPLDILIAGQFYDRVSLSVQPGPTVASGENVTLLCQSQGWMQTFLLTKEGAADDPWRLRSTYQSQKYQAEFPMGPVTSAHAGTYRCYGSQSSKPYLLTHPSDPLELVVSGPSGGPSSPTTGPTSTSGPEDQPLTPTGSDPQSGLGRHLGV
T3 sequence (Q8N423 other isoform, or with tags, fused parts or gaps H02H H02H): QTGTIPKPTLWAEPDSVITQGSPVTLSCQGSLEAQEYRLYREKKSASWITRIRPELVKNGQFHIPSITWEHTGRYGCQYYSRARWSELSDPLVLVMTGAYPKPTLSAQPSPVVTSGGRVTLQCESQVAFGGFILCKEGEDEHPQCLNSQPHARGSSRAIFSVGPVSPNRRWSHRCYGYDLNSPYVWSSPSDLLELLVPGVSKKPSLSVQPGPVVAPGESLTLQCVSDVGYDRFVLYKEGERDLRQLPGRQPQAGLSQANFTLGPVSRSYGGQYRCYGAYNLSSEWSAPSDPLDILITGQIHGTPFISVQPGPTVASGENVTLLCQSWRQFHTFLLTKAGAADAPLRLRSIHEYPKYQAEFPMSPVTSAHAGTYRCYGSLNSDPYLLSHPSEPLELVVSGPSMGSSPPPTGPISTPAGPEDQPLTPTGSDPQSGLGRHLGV
T5 sequence (Q8N423 other isoform, or with tags, fused parts or gaps H08H H08H): as the sequence (Q8N423 other isoform, or with tags, fused parts or gaps H02H H02H) above
T6 sequence (O75019 17-489): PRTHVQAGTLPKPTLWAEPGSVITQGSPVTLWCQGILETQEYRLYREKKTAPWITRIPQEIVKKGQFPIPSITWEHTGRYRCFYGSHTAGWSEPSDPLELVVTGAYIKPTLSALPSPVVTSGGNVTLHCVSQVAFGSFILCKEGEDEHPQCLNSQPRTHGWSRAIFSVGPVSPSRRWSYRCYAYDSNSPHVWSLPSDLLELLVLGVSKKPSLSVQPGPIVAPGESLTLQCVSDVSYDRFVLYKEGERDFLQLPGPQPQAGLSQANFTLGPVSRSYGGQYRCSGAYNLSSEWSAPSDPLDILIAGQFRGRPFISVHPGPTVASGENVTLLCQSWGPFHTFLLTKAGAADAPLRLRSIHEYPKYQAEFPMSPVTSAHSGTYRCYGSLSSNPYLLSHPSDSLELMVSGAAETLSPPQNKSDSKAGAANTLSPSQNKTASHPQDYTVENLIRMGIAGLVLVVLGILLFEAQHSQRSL
T4 sequence (Q8N423 other isoform, or with tags, fused parts or gaps limits assumed): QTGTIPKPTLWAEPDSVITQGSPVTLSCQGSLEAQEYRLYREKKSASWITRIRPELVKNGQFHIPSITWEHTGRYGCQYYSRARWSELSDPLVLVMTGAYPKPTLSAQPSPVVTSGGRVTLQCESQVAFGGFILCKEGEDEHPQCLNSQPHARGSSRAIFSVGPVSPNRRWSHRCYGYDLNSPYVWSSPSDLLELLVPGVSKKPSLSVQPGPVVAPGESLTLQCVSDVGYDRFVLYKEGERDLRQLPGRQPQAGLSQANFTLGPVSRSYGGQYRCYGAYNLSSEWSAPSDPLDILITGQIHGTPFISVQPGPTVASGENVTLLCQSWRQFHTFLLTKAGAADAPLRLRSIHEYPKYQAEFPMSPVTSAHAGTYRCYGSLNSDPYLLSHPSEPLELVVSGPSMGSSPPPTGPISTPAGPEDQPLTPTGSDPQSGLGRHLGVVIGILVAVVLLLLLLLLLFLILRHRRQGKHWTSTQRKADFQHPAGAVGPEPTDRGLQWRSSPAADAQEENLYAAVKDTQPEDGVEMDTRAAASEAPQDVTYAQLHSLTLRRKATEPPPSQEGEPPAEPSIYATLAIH
T8 sequence (Q8NHL6 other isoform, or with tags, fused parts or gaps limits assumed): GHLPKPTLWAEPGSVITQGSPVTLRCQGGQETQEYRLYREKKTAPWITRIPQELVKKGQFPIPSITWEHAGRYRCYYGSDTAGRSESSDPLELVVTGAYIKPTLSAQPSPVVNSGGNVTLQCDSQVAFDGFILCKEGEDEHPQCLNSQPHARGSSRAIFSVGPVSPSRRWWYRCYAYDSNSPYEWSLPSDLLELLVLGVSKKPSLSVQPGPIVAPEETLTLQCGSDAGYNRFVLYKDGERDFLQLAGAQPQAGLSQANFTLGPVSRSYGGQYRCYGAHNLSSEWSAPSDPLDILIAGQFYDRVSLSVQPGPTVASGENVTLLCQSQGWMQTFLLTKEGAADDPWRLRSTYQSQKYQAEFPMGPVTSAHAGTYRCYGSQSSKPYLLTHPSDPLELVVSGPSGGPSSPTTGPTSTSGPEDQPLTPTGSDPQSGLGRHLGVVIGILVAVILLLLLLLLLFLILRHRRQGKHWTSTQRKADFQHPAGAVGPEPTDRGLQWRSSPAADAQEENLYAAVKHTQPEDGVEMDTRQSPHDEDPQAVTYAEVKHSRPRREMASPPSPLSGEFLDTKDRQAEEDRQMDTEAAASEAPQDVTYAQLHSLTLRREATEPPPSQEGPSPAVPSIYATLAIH
T7 sequence (Q6PI73 24-481): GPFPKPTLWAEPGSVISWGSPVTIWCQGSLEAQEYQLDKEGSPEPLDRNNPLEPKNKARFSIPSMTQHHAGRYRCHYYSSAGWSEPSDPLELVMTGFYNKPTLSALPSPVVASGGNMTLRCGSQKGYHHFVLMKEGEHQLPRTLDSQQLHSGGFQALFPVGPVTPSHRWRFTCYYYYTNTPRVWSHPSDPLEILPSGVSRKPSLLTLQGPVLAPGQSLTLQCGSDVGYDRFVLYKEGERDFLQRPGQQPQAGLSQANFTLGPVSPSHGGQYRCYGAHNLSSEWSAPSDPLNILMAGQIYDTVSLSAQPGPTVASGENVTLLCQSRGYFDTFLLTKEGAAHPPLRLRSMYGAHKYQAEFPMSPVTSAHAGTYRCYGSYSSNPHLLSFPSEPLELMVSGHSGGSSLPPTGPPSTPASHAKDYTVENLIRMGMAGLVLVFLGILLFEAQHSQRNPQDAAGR
T11 sequence (Q8N6C8 24-439 limits assumed): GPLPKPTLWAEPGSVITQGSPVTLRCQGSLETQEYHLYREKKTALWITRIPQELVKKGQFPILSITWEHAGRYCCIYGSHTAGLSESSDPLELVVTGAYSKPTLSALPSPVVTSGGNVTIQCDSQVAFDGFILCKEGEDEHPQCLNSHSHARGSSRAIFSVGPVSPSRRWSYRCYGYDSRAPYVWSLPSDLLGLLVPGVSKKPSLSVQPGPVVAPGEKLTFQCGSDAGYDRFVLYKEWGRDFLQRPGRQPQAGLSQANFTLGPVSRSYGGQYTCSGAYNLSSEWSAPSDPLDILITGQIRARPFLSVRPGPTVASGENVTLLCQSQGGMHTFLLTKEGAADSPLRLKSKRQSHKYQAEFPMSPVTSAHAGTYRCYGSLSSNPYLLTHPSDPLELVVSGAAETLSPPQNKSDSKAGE
T9 sequence (A6NI73 42-299 limits assumed): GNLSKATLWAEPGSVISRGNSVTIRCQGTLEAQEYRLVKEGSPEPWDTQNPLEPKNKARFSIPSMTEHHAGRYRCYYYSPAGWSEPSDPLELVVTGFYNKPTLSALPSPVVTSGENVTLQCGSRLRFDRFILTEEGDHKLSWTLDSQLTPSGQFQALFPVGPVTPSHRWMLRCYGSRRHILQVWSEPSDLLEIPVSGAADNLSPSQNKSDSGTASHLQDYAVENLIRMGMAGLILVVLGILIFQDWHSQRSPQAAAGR
T12 sequence (O75023 24-590 limits assumed): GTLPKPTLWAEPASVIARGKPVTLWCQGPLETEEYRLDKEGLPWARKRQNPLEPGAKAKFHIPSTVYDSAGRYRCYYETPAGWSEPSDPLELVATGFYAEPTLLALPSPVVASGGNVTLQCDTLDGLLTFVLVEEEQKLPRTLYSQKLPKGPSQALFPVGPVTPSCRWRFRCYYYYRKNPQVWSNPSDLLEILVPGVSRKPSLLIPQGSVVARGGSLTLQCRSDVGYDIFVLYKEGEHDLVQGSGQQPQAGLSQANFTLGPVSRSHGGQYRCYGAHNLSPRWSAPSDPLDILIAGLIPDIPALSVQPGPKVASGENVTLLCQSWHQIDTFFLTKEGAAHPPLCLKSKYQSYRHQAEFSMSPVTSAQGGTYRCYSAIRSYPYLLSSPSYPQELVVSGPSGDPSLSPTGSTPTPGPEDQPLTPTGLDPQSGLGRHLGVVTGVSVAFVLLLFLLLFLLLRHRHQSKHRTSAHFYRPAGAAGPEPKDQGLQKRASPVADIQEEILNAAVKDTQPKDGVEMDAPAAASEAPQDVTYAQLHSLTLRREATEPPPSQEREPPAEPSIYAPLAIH
T13 sequence (Q8N149 24-483 limits assumed): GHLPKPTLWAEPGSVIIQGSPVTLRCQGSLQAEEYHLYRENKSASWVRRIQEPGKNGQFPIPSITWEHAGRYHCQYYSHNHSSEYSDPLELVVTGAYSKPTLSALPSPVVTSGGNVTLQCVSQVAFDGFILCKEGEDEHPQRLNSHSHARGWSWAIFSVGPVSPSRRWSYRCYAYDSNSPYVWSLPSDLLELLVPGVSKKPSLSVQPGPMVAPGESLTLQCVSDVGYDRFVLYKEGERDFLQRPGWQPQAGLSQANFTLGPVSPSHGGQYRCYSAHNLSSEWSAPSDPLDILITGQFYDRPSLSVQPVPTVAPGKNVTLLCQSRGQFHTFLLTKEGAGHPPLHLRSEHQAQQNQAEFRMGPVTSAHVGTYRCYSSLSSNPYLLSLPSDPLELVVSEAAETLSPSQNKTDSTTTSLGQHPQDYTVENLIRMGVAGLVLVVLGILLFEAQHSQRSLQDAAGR

Kd [1]: 0.366 nM
Kd [3]: 0.0482 nM
Kd [4]: 0.515 nM
koff [4]: 2.17e-05 s⁻¹
kon [4]: 42100 M⁻¹ s⁻¹
EC50 [5]: 0.081 mg/L
EC50 [6]: 0.206 mg/L
MaxMFI [6]: 33600
IC50 (read off the curve) [7]: ~1 mg/L
IC50 [8]: 0.015 mg/L
Kd [9]: 0.119 nM
koff [9]: 5.89e-05 s⁻¹
kon [9]: 496000 M⁻¹ s⁻¹
EC50 (read off the curve) [10]: ~0.1 mg/L
IC50 (read off the curve) [11]: ~1 mg/L
IC50 (read off the curve) [12]: ~1 mg/L
EC50 (read off the curve) [14]: ~0.2 mg/L
EC50 (read off the curve) [15]: ~0.3 mg/L
EC50 [16]: 0.102 mg/L
MaxMFI [16]: 27500
EC50 [17]: 1.45 mg/L
IC50 (read off the curve) [18]: ~2 mg/L
IC50 (read off the curve) [19]: ~1 mg/L
EC50 [20]: 0.388 mg/L
MaxMFI [20]: 113000
EC50 (read off the curve) [21]: ~0.1 mg/L
IC50 [22]: 0.304 mg/L
IC50 (read off the curve) [23]: ~2 mg/L
EC50 (read off the curve) [24]: ~0.4 mg/L
B1: D2M002-126 (antibody, V domains shown)
VH: QVQLVQSGAEVKKPGASVKVSCKASGYTFTSYWIEWVRQAPGQGLEWIGEILPGDESTNYNAKFKGRVTFTTDTSTSTAYMELRSLRSDDTAVYYCARSGAGGYDSGAFAYWGQGTLVTVSS
VL: AIQLTQSPSSLSASVGDRVTITCRASESVDTYGNSFMHWYQQKPGKAPKLLVYRTSNLESGVPSRFSGSGSGTDFTLTISSLQPEDFATYYCQQSNEDPWTFGGGTKVEIK
notes: Humanized and optimized variant of D2M002-026
binding result [2]: no binding (tested: about 30 µg/mL (log10 about 1.5))
binding result [13]: no binding (tested: about 30 µg/mL (log10 about 1.5))

binding result [25]: no binding (tested: 5 µg/mL)
binding result [26]: no binding (tested: 5 µg/mL)
binding result [27]: no binding (tested: 5 µg/mL)
EC50 [28]: 0.033 mg/L
EC50 [29]: 0.016 mg/L
gMFI (max) [29]: 23000
binding result [30]: no binding (tested: 5 µg/mL)
binding result [31]: no binding (tested: 5 µg/mL)
binding result [32]: no binding (tested: 5 µg/mL)
EC50 (read off the curve) [33]: ~0.02 mg/L
binding result [34]: no binding (tested: 5 µg/mL)
binding result [35]: no binding (tested: 5 µg/mL)
binding result [36]: no binding (tested: 5 µg/mL)
binding result [37]: no binding (tested: 5 µg/mL)
IC50 [38]: 0.012 mg/L
B2: Anti-LILRB1 antibody 3C1 (antibody, human IgG4 S228P, lambda, V domains shown)
VH: EVQLVESGGGLVQPGGSLRLSCAASGFTFSDYDMHWVRQATGKGLEWVATIDTAGDTYYPDSVRGRFTISRENAKNSLSLQMNSLRAGDTAVYFCARDVPGTGFDHWGQGTLVTVSS
VL: SSELTQDPAVSVALGQTVRITCQGDSLRSYYESWYQQKPGQAPVLVIYGKNNRPSGIPDRFSGSISGNTASLTITGTQAEDEADYYCNSRDNSGDHWVFGGGTRLTVLG
